Blank lines part the entries; values can stand above or below the molecule they belong to.
Key:
THP-1 cells [1] = test: Transwell trans-endothelial migration of THP-1 cells; assay type: cell-based, human; settings: 2.5 μM STAT inhibitor
LILRB4-Fc [2] = molecular target: T1, LILRB4-Fc (Homo sapiens, UniProt Q8NHJ6); test: Bio-layer interferometry (Octet) binding of APOE to LILRB4-Fc; settings: APOE 44 nM to 1176 nM
Protocol: (§1) FIGS. 29a-29g—Three APOE isoforms bind to human LILRB4. FIGS. 29a-c: Binding kinetics of APOE 2, 3, and 4 to LILRB4-Fc were measured using surface plasmon resonance (SPR). LILRB4-Fc was immobilized on Protein A biosensor tips and incubated with APOE concentrations ranging from 1.5625 nM to 100 nM. […] (FIGS. 29d-f) Binding kinetics of APOE 2, 3, and 4 to LILRB4-Fc were measured using Bio-layer Interferometry (Octet). LILRB4-Fc was immobilized on Protein A biosensor tips and incubated with APOE concentrations ranging from 44 nM to 1176 nM. […] (FIG. 29g) Binding kinetics of APOE 3 to His-LILRB4 was measured using microscale thermophoresis (MST).
Bio-layer Interferometry. Binding interactions analyses between LILRB4-Fc with APOE2, APOE3, and APOE4 were performed on the Octet RED96 (ForteBio, Pall Corporation). All interaction studies were performed with the protein A dip-and-read biosensors (ForteBio). All binding experiments were performed using the Octet Red and kinetics buffer at 30° C. LILRB4-Fc coated biosensors (25 μg/ml LILRB4-Fc was loaded for 420 s) were washed in kinetics buffer before monitoring of association (300 s) and dissociation (600 s) of APOEs. Background wavelength shifts were measured from reference sensors that were loaded only with LILRB4-Fc.

LILRB4-Fc [3] = molecular target: T1, LILRB4-Fc; test: Surface plasmon resonance (SPR) binding of APOE to LILRB4-Fc; settings: APOE 1.5625 nM to 100 nM
From the text: (§2) FIGS. 25a-251—APOE binds LILRB4 and supports AML migration. FIG. 25a: As shown by analysis of the percentage of cells in the LILRB4 reporter system that are GFP^+, human serum and mouse serum specifically activate LILRB4. FIG. 25b: Recombinant APOE activates human LILRB4 and mouse PIRB in reporter systems. FIG. 25c: Serum from APOE-null mouse was unable to activate LILRB4. FIG. 25d: Lipid-reconstituted APOE (APOE-POPC) activates human LILRB4 as well as recombinant APOE in reporter systems. […] Cells stained with anti-His tag-APC served as a negative control. FIG. 25f: Binding kinetics of human APOE-3 to LILRB4-ECD-Fc were measured using surface plasmon resonance (SPR). LILRB4-ECD-Fc was immobilized on Protein A biosensor tips and incubated with APOE-3 concentrations ranging from 1.5625 nM to 100 nM. FIG. 25g: The activation of LILRB4 by APOE was reduced by mutation at N-terminal of APOE. FIG. 25h: The activation of LILRB4 by APOE was reduced by the indicated single amino acid mutation of LILRB4. FIG. 25i-FIG. 25l: APOE is necessary for LILRB4-mediated homing. Forced expression of human lilrb4 on mouse leukemia C1498 cells increases leukemia cell homing in wildtype (WT) recipient mice (n=5) (shown in FIG. 25i). Human lilrb4-expressing C1498 cells (1), but not control GFP-expressing C1498 cells (FIG. 25k), were less capable of homing in APOE-null (KO) mice (n=5) than in WT mice (n=5); Mice were sacrificed at 20 hrs after injection of leukemia cells. GFP was used to detect leukemia cells by flow cytometry.
as §1

LILRB4 = molecular target: T2, LILRB4 (Homo sapiens, UniProt Q8NHJ6); test: LILRB4 chimeric receptor reporter cells (NFAT-GFP); assay type: cell-based; settings: for Activation of LILRB4 reporter by APOE isoforms: 40 μg/ml APOEs coated on plates or soluble; for Activation of LILRB4 reporter: percentage of GFP+ reporter cells
T2 construct: fusion of the extracellular domain (ECD) of individual LILRBs and their mouse orthologues; PILRbeta part (fusion partner); expressed in transfected cells
From the text: The inventors sought to determine if antagonizing LILRB4 could prevent AML development by reversing LILRB4-mediated immune inhibition. To identify potential agonists and antagonists of LILRBs, the inventors generated individual stable chimeric receptor reporter cells based on fusion of the extracellular domain (ECD) of individual LILRBs and their mouse orthologues PirB^27 and gp49B1^28, with the intracellular domain of paired immunoglobulin-like receptor β, which signals through the adaptor DAP-12 to activate NFAT promoter-driven GFP expression, as the inventors have described^2, 31. With help from this system, the inventors generated novel anti-LILRB4 blocking antibodies to further assess LILRB4-mediated signaling (FIG. 10).
(§3) Chimeric receptor reporter cells. The inventors constructed a stable chimeric receptor reporter cell system as described^2 31 to test the ability of a ligand to bind to the ECD of individual LILRBs, PirB, and gp49B1 and to trigger the activation or inhibition of the chimerically fused intracellular domain of paired immunoglobulin-like receptor β, which signals through the adaptor DAP-12 to activate the NFAT promoter. If an agonist or antagonist binds the ECD and activates or suppresses the chimeric signaling domain, an increase or decrease, respectively, in GFP expression is observed.
APOE competition assay was used to screen LILRB4 blocking antibodies. Briefly, APOE proteins were pre-coated on 96-well plate at 37° C. for 3 hrs. After 2 times washing by PBS, 2×10^4 LILRB4 reporter cells were seeded in each well; meanwhile, indicated anti-LILRB4 antibodies were added into culture media. After 16 hrs, the percentage of GFP^+ reporter cells was analysed by flow cytometry.

PirB = molecular target: T3, PirB (Mus musculus, UniProt P97484); test: PirB chimeric receptor reporter cells; assay type: cell-based
T3 construct: PILRbeta part (fusion partner); expressed in transfected cells
T3 sequence (P97484 25-642): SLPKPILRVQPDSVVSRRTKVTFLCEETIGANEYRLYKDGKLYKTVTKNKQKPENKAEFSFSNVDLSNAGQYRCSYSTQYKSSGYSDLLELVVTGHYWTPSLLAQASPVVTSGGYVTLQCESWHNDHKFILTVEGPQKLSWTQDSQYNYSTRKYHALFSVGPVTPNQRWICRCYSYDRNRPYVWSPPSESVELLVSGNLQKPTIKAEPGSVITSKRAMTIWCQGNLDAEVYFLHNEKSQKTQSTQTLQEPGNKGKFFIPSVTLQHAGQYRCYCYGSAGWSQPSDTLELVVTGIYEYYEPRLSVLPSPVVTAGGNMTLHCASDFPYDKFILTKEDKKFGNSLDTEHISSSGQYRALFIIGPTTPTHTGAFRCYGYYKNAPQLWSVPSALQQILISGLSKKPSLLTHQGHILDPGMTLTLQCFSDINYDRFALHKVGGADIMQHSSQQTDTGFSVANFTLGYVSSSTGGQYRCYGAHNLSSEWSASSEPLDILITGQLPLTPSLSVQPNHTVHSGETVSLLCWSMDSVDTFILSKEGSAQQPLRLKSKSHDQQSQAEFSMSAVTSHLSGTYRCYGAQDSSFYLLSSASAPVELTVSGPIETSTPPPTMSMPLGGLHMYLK
From the text: as §3

gp49B1 = molecular target: T4, gp49B1 (Mus musculus, UniProt Q64281); test: gp49B1 chimeric receptor reporter cells; assay type: cell-based
T4 construct: PILRbeta part (fusion partner); expressed in transfected cells
T4 sequence (Q64281 24-238): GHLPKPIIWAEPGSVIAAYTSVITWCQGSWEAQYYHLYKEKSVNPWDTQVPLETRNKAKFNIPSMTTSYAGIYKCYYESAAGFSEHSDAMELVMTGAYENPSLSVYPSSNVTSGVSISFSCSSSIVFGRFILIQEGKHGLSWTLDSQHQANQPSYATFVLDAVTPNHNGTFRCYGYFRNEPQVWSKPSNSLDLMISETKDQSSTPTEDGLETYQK
From the text: as §3

THP-1 cells [4] = test: APOE binding to THP-1 cells by flow cytometry; set-up: species or system human; settings: lilrb4-knockout versus wild-type THP-1 cells
From the text: as §2, with “Human lilrb4-expressing C1498 cells (1), but not control GFP-expressing C1498 cells (FIG. 25k), were less capable of homing in APOE-null (KO) mice (n=5) than in WT mice (n=5); Mice were sacrificed at 20 hrs after injection of leukemia cells. GFP was used to detect leukemia cells by flow cytometry.” left out

[5] = system: T cells co-cultured with THP-1 cells; test: Tumor cell/T cell co-culture assay; assay type: cell-based, human; settings: T cells with irradiated THP-1 cells, protein supplemented
Protocol: Tumor cell/T cell co-culture assay. Human T cells isolated from health donor peripheral blood (PB009-1-0, Allcells) were co-cultured with irradiated (28 Gy) THP-1 cells in a U-bottom 96 well-plate for 3-7 days. Anti-CD3/CD28-coated beads (#11161D, Thermo Fisher), 50 U/ml recombinant human IL-2, and 5 ng/ml recombinant human IL-7 were supplemented to the medium. In some experiments, THP-1 cells were cultured in the upper chamber of transwell inserts (pore size is 3 μM, #09-761-80, Thermo Fisher) for the U-bottom 96 well-plate. For primary AML or B-ALL samples, patient CD3^+ T cells were collected and patient leukemia cells were sorted as CD33^+ and CD19^+ for AML and B-ALL, respectively.
CD8^+ T cells (5×10^4 per well) isolated from hPBMCs of a healthy donor (Interstate Blood Bank) were stimulated with anti-CD3/CD28/CD137-coated beads (11163D, Thermo Fisher) or cultured without stimulation for 2 days in a 96-well plate. Then, 5×10^3 human leukemia THP-1-Luc-GFP cells and 50 to 500 μg/ml anti-LILRB4 antibody C84 or control antibody mIgG were added. Cell numbers were determined on day 7 in triplicate wells. Anti-CD8 and anti-CD28 were used to detect human CTL cells; THP-1 cells were positive for GFP. […]

T2 sequence (Q8NHJ6 with tags, fused parts or gaps): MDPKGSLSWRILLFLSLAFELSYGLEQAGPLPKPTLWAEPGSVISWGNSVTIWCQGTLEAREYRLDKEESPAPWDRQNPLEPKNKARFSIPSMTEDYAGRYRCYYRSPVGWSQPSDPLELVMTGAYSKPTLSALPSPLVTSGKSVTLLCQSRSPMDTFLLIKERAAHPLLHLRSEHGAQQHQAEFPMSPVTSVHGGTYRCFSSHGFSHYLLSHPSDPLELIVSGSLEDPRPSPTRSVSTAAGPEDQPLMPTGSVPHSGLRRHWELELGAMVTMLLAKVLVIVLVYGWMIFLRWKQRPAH
T1 sequence (Q8NHJ6 22-259 limits assumed): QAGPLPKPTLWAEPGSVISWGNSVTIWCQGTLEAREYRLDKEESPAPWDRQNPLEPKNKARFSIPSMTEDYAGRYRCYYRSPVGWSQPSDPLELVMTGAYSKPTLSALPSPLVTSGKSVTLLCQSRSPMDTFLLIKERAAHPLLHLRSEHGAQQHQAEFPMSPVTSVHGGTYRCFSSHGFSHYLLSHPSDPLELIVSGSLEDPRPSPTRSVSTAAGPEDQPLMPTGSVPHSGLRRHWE

Molecule: O=[N+]([O-])c1ccc2c(c1)S(=O)(=O)C=C2 [stattic, reference compound]
THP-1 cell transmigration across endothelial cells (THP-1 cells [1]): decreases

Kd (LILRB4-Fc [2]): 60.7 nM | Kd (LILRB4-Fc [3]): 5.53 nM | Activation of LILRB4 reporter by APOE isoforms (LILRB4): activate
Molecule: APOE2: isoform of human APOE, ligand of LILRB4

Kd (LILRB4-Fc [2]): 61.7 nM | Kd (LILRB4-Fc [3]): 2.48 nM | Activation of LILRB4 reporter by APOE isoforms (LILRB4): activate
Molecule: APOE3: isoform of human APOE, ligand of LILRB4

Kd (LILRB4-Fc [2]): 48.4 nM | Kd (LILRB4-Fc [3]): 3.57 nM | Activation of LILRB4 reporter by APOE isoforms (LILRB4): activate
Molecule: APOE4: isoform of human APOE, ligand of LILRB4

Activation of LILRB4 reporter (LILRB4): same ability as lipid-free APOE protein
Molecule: APOE-POPC: liposome-reconstituted APOE protein

Activation of mouse PirB reporter (PirB): specifically activated | Kd (LILRB4-Fc [3]): 2 nM | Activation of gp49B1 reporter (gp49B1): not | Activation of LILRB4 reporter (LILRB4): activates
Molecule: recombinant APOE: recombinant APOE protein, isoform not stated at the place
Binding of APOE to THP-1 cells (THP-1 cells [4]): significantly decreased

Activation of LILRB4 reporter (LILRB4): significantly reduced
B1: Mut-N: N-terminal mutant of human APOE: R142A/K143A/R145A/K146A/R147A/R150A (protein)
chain: KVEQAVETEPEPELRQQTEWQSGQRWELALGRFWDYLRWVQTLSEQVQEELLSSQVTQELRALMDETMKELKAYKSELEEQLTPVAEETRARLSKELQAAQARLGADMEDVCGRLVQYRGEVQAMLGQSTEELRVRLASHLAALAAALLADADDLQKRLAVYQAGAREGAERGLSAIRERLGPLVEQGRVRAATVGSLAGQPLQERAQAWGERLRARMEEMGSRTRDRLDEVKEQVAEVRAKLEEQAQQIRLQAEAFQARLKSWFEPLVEDMQRQWAGLVEKVQAAVGTSAAPVPSDNH

B2: CCL4: CCL4 protein supplemented in co-culture media (protein, UniProt P13236 24-92, looked up)
C-C motif chemokine 4: APMGSDPPTACCFSYTARKLPRNFVVDYYETSSLCSQPAVVFQTKRSKQVCADPSESWVQEYVYDLELN
T cell proliferation in coculture [5]: suppressed

Activation of LILRB4 reporter (LILRB4): can activate
B3: mouse APOE: mouse APOE protein (protein)
chain: EGEPEVTDQLEWQSNQPWEQALNRFWDYLRWVQTLSDQVQEELQSSQVTQELTALMEDTMTEVKAYKKELEEQLGPVAEETRARLGKEVQAAQARLGADMEDLRNRLGQYRNEVHTMLGQSTEEIRARLSTHLRKMRKRLMRDAEDLQKRLAVYKAGAREGAERGVSAIRERLGPLVEQGRQRTANLGAGAAQPLRDRAQAFGDRIRGRLEEVGNQARDRLEEVREHMEEVRSKMEEQTQQIRLQAEIFQARLKGWFEPIVEDMHRQWANLMEKIQASVATNPIITPVAQENQ

Reference: US11906519B2, “Methods for identifying LILRB-blocking antibodies” (THE BOARD OF REGENTS OF THE UNIVERSITY OF TEXAS SYSTEM, priority 2016, dated 2024)
